Test results reported in the supplement of paper PMC7125110.
± gives the standard error. For part of these data: Fewer inactive variants are shown than the library holds.

B1: glmS ribozyme (parent)
chain: AUAAAAGCGCCAGAACUACAGAAAUGUAGUUGACGAGGAGGAGGUUUAUCGAAUUUUCGGCGGAUGCCUCCAAA

What was measured:
Conditions in all cases: with glucosamine-6-phosphate
glucosamine-6-phosphate [1] = variants of: B1; experiment: kcat; higher = faster cleavage; RNA array
Procedure, shortened: (§1)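 Barcoded ribozyme variants on sequenced MiSeq chips were transcribed in situ by E. coli RNA polymerase and followed at 37 °C through a hybridised Cy3 probe. Glucosamine-6-phosphate at 40 μM to 10 mM in HEPES/KCl/Mg(OAc)2 buffer was flowed in, and tiles were imaged over ~14 h. Signals were normalised to baseline and to non-cleaving reference variants, and per-tile medians were fit to one- or two-exponential decays to give kobs. Weighted Michaelis–Menten fits across concentrations gave kcat and KM.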

glucosamine-6-phosphate [2] = variants of: B1; experiment: KM; higher = weaker cofactor use; RNA array
Procedure, shortened: as §1

glucosamine-6-phosphate [3] = variants of: B1; experiment: self-cleavage kobs at 10000 uM GlcN6P; higher = faster cleavage; RNA array
Procedure, shortened: as §1

glucosamine-6-phosphate [4] = variants of: B1; experiment: self-cleavage kobs at 40 uM GlcN6P; higher = faster cleavage; RNA array
Procedure, shortened: as §1

glucosamine-6-phosphate [5] = variants of: B1; experiment: self-cleavage kobs at 160 uM GlcN6P; higher = faster cleavage; RNA array
Procedure, shortened: as §1

glucosamine-6-phosphate [6] = variants of: B1; experiment: self-cleavage kobs at 640 uM GlcN6P; higher = faster cleavage; RNA array
Procedure, shortened: as §1

glucosamine-6-phosphate [7] = variants of: B1; experiment: self-cleavage kobs at 2500 uM GlcN6P; higher = faster cleavage; RNA array
Procedure, shortened: as §1

Row | Variant | kcat (glucosamine-6-phosphate [1]) [s⁻¹] | KM (glucosamine-6-phosphate [2]) [µM] | self-cleavage kobs at 10000 uM GlcN6P (glucosamine-6-phosphate [3]) [s⁻¹] | self-cleavage kobs at 40 uM GlcN6P (glucosamine-6-phosphate [4]) [s⁻¹] | self-cleavage kobs at 160 uM GlcN6P (glucosamine-6-phosphate [5]) [s⁻¹] | self-cleavage kobs at 640 uM GlcN6P (glucosamine-6-phosphate [6]) [s⁻¹] | self-cleavage kobs at 2500 uM GlcN6P (glucosamine-6-phosphate [7]) [s⁻¹]
1 | AUAAAAGCGCCAGAACUACAGAAAUGUAGUUGACGAGGAGGCGGUUUAUCGAAUUUUCGGCGGAUGCCUCCAAA [A42C] | 1.83e-05 ± 2.5e-07 | 5140 ± 190 | 1.21e-05 ± 1.4e-06 |  |  |  | 
2 | AUAAAAGCGCCAGAACUACAGAAAUGUAGUUGACGAGGAGGCGGUUUAUCGAAUUUUCGCCGGAUGCCUCCAAA [A42C G60C] | < 1e-05 |  |  | < 1e-05 | < 1e-05 | < 1e-05 | 
3 | AUAAAAGCGCCAGAACUACAGAAAUGUAGUUGACGAGGAGUAGGUUUAUCGAAUGUUCGGCGGAUGCCUCCAAA [G41U U55G] | 0.000303 ± 5.3e-05 |  | 0.000252 ± 3.2e-05 | 3.39e-05 ± 1.1e-05 | 9.74e-05 ± 2.6e-05 | 0.000276 ± 3.9e-05 | 0.000419 ± 7.2e-05
4 | AUAAAAGCGCCAGAACUACAGAAAUGUAGUUGACGAGGAGUAGGUUUAUCGAACUUUCGGCGGAUGCCUCCAAA [G41U U54C] | 0.00115 ± 0.00032 |  | 0.00117 ± 0.00018 | 0.000109 ± 1.9e-05 | 0.000197 ± 4.5e-05 | 0.000389 ± 0.0001 | 0.00118 ± 0.00025
5 | AUAAAAGCGCCAGAACUACAGAAAUGUAGUUGACGAGGAGGCGGUUUAUCGAAUAUUCGGCGGAUGCCUCCAAA [A42C U55A] | 1.17e-05 ± 4.9e-06 |  |  |  |  |  | 
6 | AUAAAAGCGCCAGAACUACAGAAAUGUAGUUGACGAGGAGGCGGUUUAUAGAAUUUUCGGCGGAUGCCUCCAAA [A42C C50A] | < 1e-05 |  | < 1e-05 | < 1e-05 |  |  | < 1e-05
7 | AUAAAAGCGCCAGAACUACAGAAAUGUAGUUGACGAGGAGGCGGUUUAUCGAAUUUGCGGCGGAUGCCUCCAAA [A42C U57G] | < 1e-05 |  |  | < 1e-05 | < 1e-05 |  | 
8 | AUAAAAGCGCCAGAACUACAGAAAUGUAGUUGACGAGGAGUAGGUUUAUCGAAUUCUCGGCGGAUGCCUCCAAA [G41U U56C] | 3.03e-05 ± 3.2e-06 | 1560 ± 400 |  |  | < 1e-05 |  | 
9 | AUAAAAGCGCCAGAACUACAGAAAUGUAGUUGACGAGGAGUAGGUUUAUCGAAUUGUCGGCGGAUGCCUCCAAA [G41U U56G] | 0.000847 ± 0.00013 | 2280 ± 590 | 0.00064 ± 9.6e-05 | 2.66e-05 ± 1.2e-05 | 4.73e-05 ± 1.1e-05 | 0.000185 ± 3.5e-05 | 0.000491 ± 5.8e-05
10 | AUAAAAGCGCCAGAACUACAGAAAUGUAGUUGACGAGGAGGCGGUUUAUCGAAUUCUCGGCGGAUGCCUCCAAA [A42C U56C] | < 1e-05 |  |  | < 1e-05 |  |  | 
